Data taken from patent US20070219133A1.

Legend:
[1] = molecular target: extracellular region of human V158 FcγRIIIa fused with GST (human) (UniProt P08637); test: AlphaScreen competition
[2] = molecular target: extracellular region of human FcγRIIb (human) (UniProt P31994); test: AlphaScreen competition
[3] = molecular target: extracellular region of human FcγRIIb (human) (UniProt P31994); test: AlphaScreen competition, trastuzumab context
[4] = molecular target: extracellular region of human F158 FcγRIIIa (human) (UniProt P08637); test: SPR
Chain of extracellular region of human F158 FcγRIIIa (human) (P08637 17-208): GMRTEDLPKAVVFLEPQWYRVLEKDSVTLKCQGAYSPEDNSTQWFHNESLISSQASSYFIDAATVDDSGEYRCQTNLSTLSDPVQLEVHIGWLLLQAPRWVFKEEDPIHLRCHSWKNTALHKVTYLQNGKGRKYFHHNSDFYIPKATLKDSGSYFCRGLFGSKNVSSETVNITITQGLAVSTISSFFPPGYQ

[5] = molecular target: His-tagged human V158 FcγRIIIa (immobilized on SPR chip) (human) (UniProt P08637); test: SPR, His-tagged V158 FcγRIIIa immobilized
Chain of His-tagged human V158 FcγRIIIa (immobilized on SPR chip) (human) (P08637 17-208 F176V limits assumed): as the sequence (P08637 17-208) above, with F160V counted along it

[6] = molecular target: human FcγRIIIa on human PBMC effector cells (human) (UniProt P08637); test: cell-based or functional assay
[7] = molecular target: extracellular region of human F158 FcγRIIIa (human) (UniProt P08637); test: AlphaScreen competition

Chain of extracellular region of human FcγRIIb (human) (P31994 43-217): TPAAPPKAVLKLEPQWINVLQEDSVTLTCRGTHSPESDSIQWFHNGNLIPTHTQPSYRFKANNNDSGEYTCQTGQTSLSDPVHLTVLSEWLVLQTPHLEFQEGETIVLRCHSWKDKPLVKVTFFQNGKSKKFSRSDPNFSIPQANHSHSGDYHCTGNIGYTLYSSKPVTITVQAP
Chain of extracellular region of human V158 FcγRIIIa fused with GST (human) (P08637 17-208 F176V): as the sequence (P08637 17-208) above, with F160V counted along it

Substance	FcγRIIIa Fold [1] [fold vs WT]	also measured
trastuzumab Fc variant S239D/V264I/I332E (antibody)	36.6	FcγRIIb Fold [2]: 14.4 fold vs WT
trastuzumab Fc variant S239N/A330Y/I332E (antibody)	14.2	–
trastuzumab Fc variant S239D (antibody)	–	FcγRIIb Fold [3]: 4.47 fold vs WT
trastuzumab Fc variant S239D/I332E (antibody)	–	FcγRIIb Fold [3]: 19.7 fold vs WT
trastuzumab Fc variant E272Y (antibody)	8.7	–
trastuzumab Fc variant K274T (antibody)	1.41	–
trastuzumab Fc variant Y278W (antibody)	0.41	–
alemtuzumab Fc variant I332E (antibody)	–	Kd [4]: 72 nM; Kd [5]: 31 nM
trastuzumab Fc variant S239D/A330Y/I332E/L235D (antibody)	7.04	–
trastuzumab Fc variant S239D/A330Y/I332E/K326E (antibody)	64.1	–
trastuzumab Fc variant P230A/E233D/I332E (antibody)	1.87	–
trastuzumab Fc variant T335D (antibody)	2.79	–
trastuzumab Fc variant Y278E (antibody)	0.9	–
trastuzumab Fc variant E333H (antibody)	0.75	–
trastuzumab Fc variant P230A/E233D (antibody)	0.92	–
alemtuzumab Fc variant V264I/I332E (antibody)	12.5	Fold [4]: 14 fold vs WT; Kd [4]: 52 nM; ADCC EC50 (ng/ml), DoHH-2 targets, PBMCs heterozygous V158/F158 FcγRIIIa [6]: 4 ng/mL; ADCC Fold Improvement Over WT [6]: 2.5 fold; Fold [5]: 4 fold vs WT; Kd [5]: 17 nM; Fold [1]: 12.8 fold vs WT; IC50 [1]: 0.5 nM; Fold [7]: 15.6 fold vs WT; IC50 [7]: 1.1 nM
alemtuzumab Fc variant S298A (antibody)	–	Kd [4]: 285 nM; Kd [5]: 52 nM

Substance	FcγRIIIa Fold [1] [fold vs WT]	also measured
trastuzumab Fc variant S239N/A330L/I332E (antibody)	12.9	–
wild type alemtuzumab (Campath), IgG1, expressed in 293T cells (antibody)	–	Kd [4]: 730 nM; ADCC EC50 (ng/ml), DoHH-2 targets, PBMCs heterozygous V158/F158 FcγRIIIa [6]: 9.9 ng/mL; Kd [5]: 68 nM
alemtuzumab Fc variant W313F (antibody)	0.88	–
trastuzumab Fc variant S239D/I332E/A330I (antibody)	59.1	–
trastuzumab Fc variant K274Y (antibody)	1.06	–
alemtuzumab Fc variant V264I (antibody)	–	Kd [4]: 550 nM; Kd [5]: 64 nM
trastuzumab Fc variant S239D/A330Y/I332E/V240I (antibody)	28	–
alemtuzumab Fc variant S239D/I332E (antibody)	56.1	ADCC EC50 (ng/ml), DoHH-2 targets, PBMCs heterozygous V158/F158 FcγRIIIa [6]: 3 ng/mL; ADCC Fold Improvement Over WT [6]: 3.3 fold
trastuzumab Fc variant V323I (antibody)	0.83	–
trastuzumab Fc variant F275W (antibody)	1.11	–
alemtuzumab Fc variant S298A/E333A/K334A (antibody)	–	Kd [4]: 156 nM; Kd [5]: 39 nM
trastuzumab Fc variant E318R (antibody)	1.06	–
trastuzumab Fc variant E233D (antibody)	0.85	–
trastuzumab Fc variant N276S (antibody)	0.41	–
trastuzumab Fc variant S324I (antibody)	1.15	–
trastuzumab Fc variant S239D/A330Y/I332E/L234I (antibody)	22.4	–

Second part, led by results:

FcγRIIIa Fold [1] [fold vs WT]	Substance	also measured
1.88	trastuzumab Fc variant K326T (antibody)	–
0.56	trastuzumab Fc variant N276Y (antibody)	–
117	trastuzumab Fc variant S324V (antibody)	–
6.11	trastuzumab Fc variant K274E (antibody)	–
1.01	trastuzumab Fc variant V302I (antibody)	–
0.71	trastuzumab Fc variant S324R (antibody)	–
0.79	trastuzumab Fc variant V273I (antibody)	–
17.7	trastuzumab Fc variant S239D/A330Y/I332E/V264T (antibody)	–
0.98	trastuzumab Fc variant S324Y (antibody)	–
0.78	trastuzumab Fc variant E333T (antibody)	–
1.56	trastuzumab Fc variant T335Y (antibody)	–
1.43	trastuzumab Fc variant K326I (antibody)	–
0.67	trastuzumab Fc variant E283R (antibody)	–
1.09	trastuzumab Fc variant P230A (antibody)	–
32.1	trastuzumab Fc variant S239N/S298A/I332E (antibody)	FcγRIIb Fold [2]: 5.15 fold vs WT
1.72	trastuzumab Fc variant V240I/V266I (antibody)	–
1.87	trastuzumab Fc variant Y278T (antibody)	–
0.07	trastuzumab Fc variant L234I/L235D (antibody)	–
16.5	trastuzumab Fc variant V264I/S298A/I332E (antibody)	–
0.66	trastuzumab Fc variant N276R (antibody)	–
1.41	trastuzumab Fc variant K274R (antibody)	–
2.58	trastuzumab Fc variant T335R (antibody)	–
0.87	trastuzumab Fc variant N276E (antibody)	–
1.09	trastuzumab Fc variant K274L (antibody)	–
